# T1: wild type B. subtilis glutamine PRPP amidotransferase (Bacillus subtilis, UniProt P00497)
# T1 construct: Enzymes of the B. subtilis class are synthesized with an NH2 terminal propeptide and an Fe—S center; made in house; host or cells: E. coli strain TX158 (purF) with plasmid pGZ1
# T1 sequence (P00497 12-476): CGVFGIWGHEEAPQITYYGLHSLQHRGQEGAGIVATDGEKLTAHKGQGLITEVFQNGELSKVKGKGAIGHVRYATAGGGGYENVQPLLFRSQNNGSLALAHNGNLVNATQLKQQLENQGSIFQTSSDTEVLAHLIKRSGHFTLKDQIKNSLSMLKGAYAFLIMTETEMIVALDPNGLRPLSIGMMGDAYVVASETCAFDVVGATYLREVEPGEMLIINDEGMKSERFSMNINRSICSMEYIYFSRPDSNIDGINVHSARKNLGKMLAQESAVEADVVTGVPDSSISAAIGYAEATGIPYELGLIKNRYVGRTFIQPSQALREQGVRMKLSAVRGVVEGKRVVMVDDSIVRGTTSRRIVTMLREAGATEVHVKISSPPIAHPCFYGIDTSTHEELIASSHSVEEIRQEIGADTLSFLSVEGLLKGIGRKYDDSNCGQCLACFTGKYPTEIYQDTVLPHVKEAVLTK
# Key:
# [1] = target: T1, wild type B. subtilis glutamine PRPP amidotransferase; experiment: Inhibition of enzyme activity by nucleotides (glutamate formation assay), wild type; type: biochemical; settings: read-out: Km PRPP; wild type enzyme; data not shown
# Procedure: Enzyme activity was assayed by measuring the initial rate of formation of the product glutamate. […] Incubation was at 37° C. for 6 min. […] Reactions were quenched in a boiling water bath for 2 min, and glutamate was determined by the glutamate dehydrogenase method.
# Inhibition by nucleotides was determined by the standard assay to which varied concentrations of nucleotide were added. Synergistic inhibition was determined by varying the concentration of one nucleotide in the presence of a fixed concentration of a second nucleotide. Relative activity (see FIG. 1) refers to the enzyme activity at a given concentration of the varied nucleotide relative to that in the absence of the varied nucleotide. I0.5 values were calculated from plots of relative activity versus varied nucleotide concentration.
# [2] = tested on: O=P(O)(O)OC[C@H]1OC(OP(=O)(O)OP(=O)(O)O)[C@H](O)[C@@H]1O; experiment: purified protein, by the assay type; settings: other: S347A enzyme; data not shown; pH 8.0; 37.0 °C
# [3] = Specific activity of purified enzyme; type: biochemical, Bacillus subtilis; settings: typical value
# Procedure: For enzyme purification, all buffers were sparged with nitrogen gas prior to use in order to minimize oxidation of the enzyme's Fe-S cluster. All steps were carried out at 4° C. Cells were resuspended in 4 mL/gram of buffer A [50 mM Tris-HCl (pH 8.0), 10 mM MgCl2, 0.1 mM EDTA, 5 mM DTT, and 2 mM AMP] containing 1 mM PMSF, and were disrupted by two passes through a French Press. The cell extract was obtained by centrifugation for 1 h at 27,000 g. Protamine sulfate (5 mg per gram of cells) was added to the extract to precipitate DNA. After centrifugation at 27,000 g for 30 min, the supernatant was applied to a 1.9×20 cm column of DEAE-Sepharose equilibrated with buffer A. The column was washed with 300 mL of buffer A and 300 mL of buffer A plus 0.1 M KCl and eluted with a linear salt gradient of 600 mL from 0.1 to 1.0 M KCl in buffer A. Brown-colored fractions containing the enzyme were precipitated by addition of ammonium sulfate to 40% saturation. After centrifugation, enzyme in the brown pellet was recovered by extraction twice with 30% saturated ammonium sulfate. […]
# Enzyme activity was assayed by measuring the initial rate of formation of the product glutamate. […] Reactions were quenched in a boiling water bath for 2 min, and glutamate was determined by the glutamate dehydrogenase method. […]
molecule,measurement,setting,value
"O=P(O)(O)OC[C@H]1OC(OP(=O)(O)OP(=O)(O)O)[C@H](O)[C@@H]1O (stereo partly drawn) [PRPP, phosphoribosylpyrophosphate]",Km,[1],75 to 81 µM
glutamine PRPP amidotransferase S347A mutant enzyme (Bacillus subtilis subsp. subtilis str. 168; S358A),Km,[2],182 µM
"wild type: wild type B. subtilis glutamine PRPP amidotransferase produced from plasmid pGZ1 (protein, UniProt P00497 12-476, looked up) Amidophosphoribosyltransferase: CGVFGIWGHEEAPQITYYGLHSLQHRGQEGAGIVATDGEKLTAHKGQGLITEVFQNGELSKVKGKGAIGHVRYATAGGGGYENVQPLLFRSQNNGSLALAHNGNLVNATQLKQQLENQGSIFQTSSDTEVLAHLIKRSGHFTLKDQIKNSLSMLKGAYAFLIMTETEMIVALDPNGLRPLSIGMMGDAYVVASETCAFDVVGATYLREVEPGEMLIINDEGMKSERFSMNINRSICSMEYIYFSRPDSNIDGINVHSARKNLGKMLAQESAVEADVVTGVPDSSISAAIGYAEATGIPYELGLIKNRYVGRTFIQPSQALREQGVRMKLSAVRGVVEGKRVVMVDDSIVRGTTSRRIVTMLREAGATEVHVKISSPPIAHPCFYGIDTSTHEELIASSHSVEEIRQEIGADTLSFLSVEGLLKGIGRKYDDSNCGQCLACFTGKYPTEIYQDTVLPHVKEAVLTK",Enzyme specific activity,[3],25 nmol/min/mg

# From patent US6586216B2 (Purdue Research Foundation, priority 1997, dated 2003)
